Measured values as given in article PMC10771525 (Communications Biology, 2024).

How the values were obtained:
MRGPRX2 [1] = details: MRGPRX2 recombinantly expressed in HEK293 cells; read-out: EC50, calcium mobilization assays; cited from earlier work
From the text: Other CXCLs contain sequences that are similar to the proposed pentapeptidic motif, but are either deeply buried in the typical 3D structure of the chemokine, or located near acidic amino acids, that are not tolerated by the negatively charged binding pocket of MRGPRX2 (see sequence alignment in Supplementary Fig. 4 for further information). […] No ...

GPR92 = assay: GPCR panel (control), Arrestin, CHO-K1; type: cell-based, human; details: reference agonist
EDG7 = assay: GPCR panel (control), Arrestin, CHO-K1; type: cell-based, human; details: reference agonist
EDG4 = assay: GPCR panel (control), Arrestin, CHO-K1; type: cell-based, human; details: reference agonist
EDG2 = assay: GPCR panel (control), Arrestin, CHO-K1; type: cell-based, human; details: reference agonist
HRH1 = assay: GPCR panel (control), Arrestin, CHO-K1; type: cell-based, human; details: reference agonist
HRH3 = assay: GPCR panel (control), Arrestin, CHO-K1; type: cell-based, human; details: reference agonist
[2] = target: MRGPRX2 fused to ProLink (PK), in CHO β-arrestin cells (human) (UniProt Q96LB1)
[3] = target: MRGPRX2 in CHEM-1 cells (human) (UniProt Q96LB1)
[4] = target: MRGPRX2 in LN229 glioblastoma cells (human) (UniProt Q96LB1)
[5] = target: T1, mouse MRGPRB2 in 1321N1 astrocytoma cells (mouse) (UniProt Q3KNA1)
T1 sequence: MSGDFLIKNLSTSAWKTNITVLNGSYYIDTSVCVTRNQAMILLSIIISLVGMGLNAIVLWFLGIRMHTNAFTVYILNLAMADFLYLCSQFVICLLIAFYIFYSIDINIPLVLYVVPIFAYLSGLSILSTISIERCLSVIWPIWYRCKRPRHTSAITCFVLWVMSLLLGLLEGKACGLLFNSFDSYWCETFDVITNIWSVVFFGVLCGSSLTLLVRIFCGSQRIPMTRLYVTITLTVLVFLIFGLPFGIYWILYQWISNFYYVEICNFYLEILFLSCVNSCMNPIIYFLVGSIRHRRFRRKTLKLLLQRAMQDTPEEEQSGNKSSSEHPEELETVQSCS

[6] = target: T1, mouse MRGPRB2 in 1321N1 astrocytoma cells (mouse); remark: listed apart in the source
MRGPRB2 = target: T2, MRGPRB2 (Mus musculus, UniProt Q3KNA1); assay: calcium mobilization assay, 1321N1 astrocytoma cells stably expressing MRGPRB2; type: cell-based
T2 construct: expressed in transfected cells; host or cells: 1321N1 astrocytoma cells (lentiviral, pLVX MRGPRB2-IRES-mCherry)
T2 sequence (Q3KNA1 1-338): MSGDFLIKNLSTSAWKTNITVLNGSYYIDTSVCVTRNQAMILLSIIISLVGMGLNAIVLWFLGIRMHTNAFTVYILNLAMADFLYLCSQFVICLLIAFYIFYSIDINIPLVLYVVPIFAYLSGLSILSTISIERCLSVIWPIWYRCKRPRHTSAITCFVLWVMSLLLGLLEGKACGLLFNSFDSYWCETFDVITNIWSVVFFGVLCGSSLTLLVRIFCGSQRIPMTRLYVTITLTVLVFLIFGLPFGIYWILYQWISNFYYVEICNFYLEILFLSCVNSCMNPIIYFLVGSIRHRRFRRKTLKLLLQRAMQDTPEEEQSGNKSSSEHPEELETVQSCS
Protocol: 1321N1 Astrocytoma cells were purchased from Sigma Aldrich-Merck KGaA (Darmstadt, Germany, 86030402). The cells were transfected with MRGPRB2 using lentiviral transfection. 1.5 × 10^6 Lenti-X 293 T cells were seeded into each T25 cell culture flask in 5 mL of DMEM, supplemented with 10% FCS, 100 U/mL of penicillin and 100 µg/mL of streptomycin. After 20 h of incubation at 37°C and 5% CO2, when the cells were grown to 80–90% confluence, the medium was exchanged for 5 mL DMEM with 10% FCS without antibiotics and incubated for 4 h. Subsequently, transfection took place using Xfect polymer according to the manufacturer’s protocol (Clontech, Takara Bio Europe, France). The pLVX MRGPRB2-IRES-mCherry-Xfect mixture was added to the packaging cells and they were incubated overnight. […] To know how many astrocytoma cells expressed the target receptor, cells were analyzed under the fluorescence microscope at the m-cherry excitation wavelength of 587 nm using its emission wavelength of 610 nm. Subsequently, fluorescent single clones were isolated by fluorescence-activated cell sorting.
(§1) […]. […] For the determination of baseline fluorescence, HBSS buffer without additives was used. […]

MRGPRX2 [7] = target: T3, MRGPRX2 (Homo sapiens, UniProt Q96LB1); assay: calcium mobilization assay, CHEM-1 cells recombinantly expressing MRGPRX2; type: cell-based; design: host or cells: CHEM-1 adherent rat hematopoietic cells; details: for pEC50: Fig. 3d
T3 sequence (Q96LB1 1-330): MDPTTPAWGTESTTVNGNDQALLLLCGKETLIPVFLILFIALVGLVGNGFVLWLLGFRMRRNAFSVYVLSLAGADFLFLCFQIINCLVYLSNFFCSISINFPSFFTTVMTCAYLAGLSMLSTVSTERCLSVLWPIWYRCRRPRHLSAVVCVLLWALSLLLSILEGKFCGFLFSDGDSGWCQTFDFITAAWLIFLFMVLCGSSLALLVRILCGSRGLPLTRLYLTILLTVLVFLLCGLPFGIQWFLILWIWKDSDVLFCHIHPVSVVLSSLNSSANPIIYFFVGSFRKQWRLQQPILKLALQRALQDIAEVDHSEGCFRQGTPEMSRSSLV
From the text: To confirm the initial results obtained in the β-arrestin recruitment assays, we established calcium mobilization assays in two different recombinant cell lines, CHEM-1 and LN229 cells, respectively. CHEM-1 cells are adherent rat hematopoietic cells with a high endogenous expression level of the promiscuous Gα15 protein enabling the measuring of calcium signaling of a large variety of GPCRs. […]. Subsequently, we employed recombinant human glioblastoma LN229 cells, a human cell line derived from glioblastoma multiforme tumors. […].
The cell lines CHEM1 and CHEM1-MRGPRX2 are adherent rat cell lines (HTSCHEM-1RTA, HTS058RTA, Merck-Millipore, Darmstadt, Germany); which were cultured under standard cell culture conditions.
A cell-based fluorometric assay was employed for the determination of intracellular calcium release using Fluo-8. Cells were seeded into microtiter plates and incubated under standard cell culture conditions. After 24 h the medium was removed, and the cells were washed with phosphate-buffered saline (PBS). The cells were incubated with loading buffer (40 ml PBS with 2 mM Ca^2+, 800 µl of brilliant black solution (2%), 732 µl of probenecid solution (0.5 M) in 1 N NaOH, 400 µL of pluronic (10%) in water, and 152 µl of Fluo-8 (5.7 ng/ml in water)) for 30 min. For fluorescence readout and compound testing a FLIPR tetra system was used according to the manufacture’s protocol (Molecular Devices, CA 94089- 1136, USA).

MRGPRX2 [8] = target: T3, MRGPRX2; assay: calcium mobilization assay, LN229 cells recombinantly expressing MRGPRX2; type: cell-based; details: Fluo-4, means ± SD of 3 to 4 independent experiments in duplicates, read-out: EC50 ± SD, calcium mobilization assays
Protocol: LN229 glioblastoma cells ATCC®, CRL-2611TM, were a kind gift from Prof. Dr. B. Scheffler (University of Bonn, Germany). LN229 cells stably expressing MRGPRX2 were generated by retroviral transfection. Briefly, GP^+envAM-12 packaging cells (LGC Standards GmbH, Wesel, Germany), derived from mouse fibroblasts, were seeded at a density of 1.5 × 10^6 cells per T25-flask in 5 mL of Dulbecco’s Modified Eagle Medium (DMEM, Thermo Fisher Scientific, Waltham, MA, USA), supplemented with 10% fetal calf serum (FCS), 100 U/mL of penicillin (PAN-Biotech) and 100 µg/mL of streptomycin (PAN-Biotech). Packaging cells were transfected with pLXSN-MRGPRX2 and pcDNA3-VSV-G using Lipofectamine 2000 according to the manufacturer’s instructions (Thermo Fisher Scientific, Darmstadt, Germany). The medium was exchanged for DMEM supplemented with 10% FCS, 100 U/mL of penicillin, 100 µg/mL of streptomycin and 3 mM of sodium butyrate (stock solution: 500 mM in water, sterile-filtered) to enhance virus production. To produce retroviral particles, cells were cultivated for 48 h at 32°C and 5% CO2. On day 4, the target cells LN229 were seeded into T25 cell culture flasks (5 × 10^5 cell). […]
as §1

MRGPRX2 [9] = target: T3, MRGPRX2; assay: β-arrestin recruitment assay (enzyme complementation), β-arrestin-CHO cells recombinantly expressing MRGPRX2; type: cell-based; details: 90 min incubation, chemiluminescence, means ± SD of 3 to 5 independent experiments in duplicates, read-out: EC50 ± SD, β-arrestin assays
[10] = target: MRGPRX2 fused to ProLink (PK), in CHO β-arrestin cells (human) (UniProt Q96LB1); remark: listed apart in the source
[11] = target: MRGPRX2 in the calcium mobilization assays of the small CXCL14 fragments and mutants (human) (UniProt Q96LB1)
[12] = target: MRGPRX2 fused to ProLink (PK), in CHO β-arrestin cells (human) (UniProt Q96LB1); remark: listed apart in the source
[13] = target: MRGPRX2 in the calcium mobilization assays of the small CXCL14 fragments and mutants (human) (UniProt Q96LB1); remark: listed apart in the source

For “CXCL4: chemokine, also known as platelet factor 4”, the EC50 (MRGPRX2 [1]) is given as 9 µM.

For `CCCCCCCC/C=C\CCCCCCCC(=O)OCC(O)COP(=O)(O)O` (stereo not shown) [1-Oleoyl-LPA], the EC50 (GPR92) was […], the “EC80” value (GPR92) was […] and the EC50 (EDG7) was […]. The “EC80” value (EDG7) was […], the EC50 (EDG4) was […] and the “EC80” value (EDG4) was […]. For the same molecule, the EC50 (EDG2) was 280 nM and the “EC80” value (EDG2) was 23 µM.

In the case of `CNCCc1cnc(CCC(c2ccccc2)c2ccccc2)[nH]1` [Methylhistaprodifen], the EC50 (HRH1) is reported as 48 nM and the “EC80” value (HRH1) is reported as 11 µM.

B1: CXC motif chemokine 14 (CXCL14) (ligand)
chain: SKCKCSRKGPKIRYSDVKKLEMKPKYPHCEEKMVIITTKSVSRYRGQEHCLHPKLQSTKRFIKWYNAWNEKRRVYEE
For B1, the EC50, β-arrestin recruitment, β-arrestin-CHO cells recombinantly expressing MRGPRX2 [2] was 0.905 µM, the EC50, calcium mobilization, CHEM-1 cells recombinantly expressing MRGPRX2 (no response in the parental CHEM1 cell line) [3] was 0.889 µM and the EC50, calcium mobilization, LN229 cells recombinantly expressing MRGPRX2 (no activation in non-transfected LN229 cells) [4] was 0.504 µM. It also gave an EC50, calcium mobilization, 1321N1 astrocytoma cells stably expressing MRGPRB2 (no response in non-transfected cells) [5] of 0.972 µM and an EC50, activation of MRGPRB2 as repeated in the discussion [6] of 0.923 µM.

B2: CXCL14: mature 77-amino acid chemokine, 9.4 kDa, also known as BRAK; purchased from BIOZOL (protein)
chain: SKCKCSRKGPKIRYSDVKKLEMKPKYPHCEEKMVIITTKSVSRYRGQEHCLHPKLQSTKRFIKWYNAWNEKRRVYEE
modifications: two disulfide bonds (native chemokine fold); entity numbering = mature + 1
For B2, the “pEC50 MRGPRB2” value (MRGPRB2; Fig. 6c source data, mean, SD and N in columns beside it (N = 2-3)) was 6.032, the “Mean of MRGPRB2 (pEC50)” value (MRGPRB2; Fig. 6c, mean as listed in the unpaired t test with Welch correction, MRGPRX2 vs. MRGPRB2) was 6.03 and the EC50 (MRGPRX2 [7]; CHEM-1 cells recombinantly expressing MRGPRX2, Fluo-8, FLIPR, read-out: EC50, calcium mobilization assays) was 889 nM. The pEC50 (MRGPRX2 [7]; replicate column 1) was 5.955, the pEC50 (MRGPRX2 [7]; replicate column 2) was 6.033 and the pEC50 (MRGPRX2 [7]; replicate column 3) was 6.061. The pEC50 (MRGPRX2 [7]; replicate column 4) was 6.051, the EC50 (MRGPRX2 [8]) was 504 nM and the EC50 (MRGPRX2 [9]) was 905 ± 548 nM.

B3: CXCL14(57-65) (peptide)
peptide: STKRFIKWY
B3 showed an Emax, β-arrestin recruitment at MRGPRX2, normalized to the maximal effect of CXCL14 [10] of 195%, an Emax, calcium mobilization at MRGPRX2, normalized to the maximal effect of CXCL14 [11] of 170% and an EC50, β-arrestin recruitment at MRGPRX2 [12] of 1.96 µM. The EC50, calcium mobilization at MRGPRX2 [13] was 0.301 µM.
